The values below come from patent publication US20200271651.

Data set [1] has as its target T1, FluHSA2 fluorogenic peptide.
T1 chain: TKCATESAVNRRPCFSALK

Data set [2] concerns the target T2, fluorescent labeled elastin protein (5-Fam-QXL520 labeled-elastin), P15502.
T2 chain: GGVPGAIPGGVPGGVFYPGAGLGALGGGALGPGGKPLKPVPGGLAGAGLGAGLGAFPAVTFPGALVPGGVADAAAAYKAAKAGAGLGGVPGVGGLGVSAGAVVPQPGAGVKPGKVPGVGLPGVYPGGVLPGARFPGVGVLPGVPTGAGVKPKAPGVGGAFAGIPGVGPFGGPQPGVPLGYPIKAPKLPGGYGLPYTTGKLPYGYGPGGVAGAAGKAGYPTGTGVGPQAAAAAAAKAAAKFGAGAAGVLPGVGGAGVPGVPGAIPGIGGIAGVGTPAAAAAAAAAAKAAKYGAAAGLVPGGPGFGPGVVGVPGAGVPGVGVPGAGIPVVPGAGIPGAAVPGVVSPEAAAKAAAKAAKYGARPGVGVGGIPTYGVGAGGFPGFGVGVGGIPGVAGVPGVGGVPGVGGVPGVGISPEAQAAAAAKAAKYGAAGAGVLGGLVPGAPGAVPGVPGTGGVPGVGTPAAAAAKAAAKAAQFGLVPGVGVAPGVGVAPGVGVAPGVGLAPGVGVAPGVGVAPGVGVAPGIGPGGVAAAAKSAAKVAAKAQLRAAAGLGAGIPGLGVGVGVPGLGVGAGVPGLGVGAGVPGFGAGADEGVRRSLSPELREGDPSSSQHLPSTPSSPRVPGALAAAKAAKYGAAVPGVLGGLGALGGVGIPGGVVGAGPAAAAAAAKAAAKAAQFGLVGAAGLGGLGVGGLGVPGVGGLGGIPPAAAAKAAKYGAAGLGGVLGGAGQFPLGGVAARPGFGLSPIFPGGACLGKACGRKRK

B1: native Asp f2 (glycosylated form) of Aspergillus fumigatus (protein)
chain: ATPHEPVFFSWDAGAVTSFPIHSSCNATQRRQIEAGLNEAVELARHAKAHILRWGNESEIYRKYFGNRPTMEAVGAYDVIVNGDKANVLFRCDNPDGNCALEGWGGHWRGANATSETVICDRSYTTRRWLVSMCSQGYTVAGSETNTFWASDLMHRLYHVPAVGQGWVDHFADGYDEVIALAKSNGTESTHDSEALQYFALEAYAFDIAAPGVGCAGESHGPDQGHDTGSASAPASTSTSSSSSGSGSGATTTPTDSPSATIDVPSNCHTHEGGQLHCT
Consider B1, for which the “degradation of FITC conjugated collagen (15 ug/mL; fluorescence), native Asp f2 on 5D7A1-bound beads” value with FITC conjugated collagen was “native Asp f2 is also capable of degrading the human proteins collagen and elastin”. For the same protein, in data set [1], the “cleavage of FluHSA2 (10 uM, 16 hours at 22 C; fluorescence), native Asp f2 on anti-Asp f2-immobilized beads” value was “FluHSA2 was found to exhibit high specificity for cleavage by Asp f2 compared with Asp f3”; the “cleavage of FluHSA2 (fluorescence, Ex 485 nm/Em 535 nm), Asp f2 captured on 5D7A1-bound beads” value is “both native and recombinant Asp f2 cleave the FluHSA2 substrate”. Also, the “degradation of 5-Fam-QXL520 labeled elastin (fluorescence), native Asp f2 on 5D7A1-bound beads” value in data set [2] was “native Asp f2 is also capable of degrading the human proteins collagen and elastin”.

B2: active recombinant Asp f2 (residues 32-310) (protein)
chain: ATPHEPVFFSWDAGAVTSFPIHSSCNATQRRQIEAGLNEAVELARHAKAHILRWGNESEIYRKYFGNRPTMEAVGAYDVIVNGDKANVLFRCDNPDGNCALEGWGGHWRGANATSETVICDRSYTTRRWLVSMCSQGYTVAGSETNTFWASDLMHRLYHVPAVGQGWVDHFADGYDEVIALAKSNGTESTHDSEALQYFALEAYAFDIAAPGVGCAGESHGPDQGHDTGSASAPASTSTSSSSSGSGSGATTTPTDSPSATIDVPSNCHTHEGGQLHCT
B2: the “cleavage of FluHSA2 (fluorescence, Ex 485 nm/Em 535 nm), Asp f2 captured on 5D7A1-bound beads” value in data set [1] was “both native and recombinant Asp f2 cleave the FluHSA2 substrate”.
